From US10967068B2, “Stability-modulating linkers for use with antibody drug conjugates” (priority 2014, dated 2021)
*1 amine or outer side, *2 acyl side, *3 side chain or, on linkers, in order; H or OH if unused. Where a SMILES comes first, the peptide text is derived from it. [ ]: non-standard residue; d: D form. The star is where a group is joined. Dolaproine = CO[C@@H]([C@@H]1CCCN1)[C@@H](C)C(=O)O; Dil = CC[C@H](C)[C@H](NC)[C@@H](CC(=O)O)OC; PABC = O=C(OCc1ccc(N[*:1])cc1)[*:2]; Doe = c1ccc(C[C@H](N*)c2nccs2)cc1; Cit = NC(=O)NCCC[C@H](N)C(=O)O; Me2Gly = CN(C)CC(=O)*; Aib = CC(C)(N)C(=O)O; X2 = CC1(C(=O)*)COC1; Sar = CNCC(=O)O; Moc = COC(=O)*

Experiment: In Vitro Stability Assay—Mouse Plasma
Format: in vitro ADME
Settings: attachment position L11B; for Conjugate stability (%): % DAR remaining after plasma 3 or 4.5 days; for DAR: before plasma incubation

In the case of `CC[C@H](C)[C@@H]([C@@H](CC(=O)N1CCC[C@H]1[C@H](OC)[C@@H](C)C(=O)N[C@@H](Cc1ccccc1)c1nccs1)OC)N(C)C(=O)[C@@H](NC(=O)C(C)(C)NC(=O)OCc1ccc(NC(=O)[C@H](CCCNC(N)=O)NC(=O)[C@@H](NC(=O)[C@H](CCCCN)NC(=O)CNC)C(C)C)cc1)C(C)C` [Example 27, N-methylglycyl-L-lysylvalyl-N-{4-[(8S,11S,12R)-11-[(2S)-butan-2-yl]-12-(2-{(2S)-2-[(1R,2R)-1-methoxy-2-methyl-3-oxo-3-{[(1S)-2-phenyl-1-(1,3-thiazol-2-yl)ethyl]amino}propyl]pyrrolidin-1-yl}-2-oxoethyl)-5,5,10-trimethyl-3,6,9-trioxo-8-(propan-2-yl)-2,13-dioxa-4,7,10-triazatetradec-1-yl]phenyl}-N˜5˜-carbamoyl-L-ornithinamide] (H-[Sar]KV[Cit][PABC][Aib]V[Dil][Dolaproine]-Doe), the “DAR after plasma incubation for 3 to 4.5 days” value (shortened to “DAR after plasma incubation”) is reported as 0.98, the “Conjugate stability (%)” value is reported as 57% and the DAR is reported as 1.72.
With `CC[C@H](C)[C@@H]([C@@H](CC(=O)N1CCC[C@H]1[C@H](OC)[C@@H](C)C(=O)N[C@@H](Cc1ccccc1)c1nccs1)OC)N(C)C(=O)[C@@H](NC(=O)C(C)(C)NC(=O)OCc1ccc(NC(=O)[C@H](CCCNC(N)=O)NC(=O)[C@@H](NC(=O)[C@H](CCCCN)NC(=O)CN(C)C)C(C)C)cc1)C(C)C` [Example 28, N,N-dimethylglycyl-L-lysylvalyl-N-{4-[(8S,11S,12R)-11-[(2S)-butan-2-yl]-12-(2-{(2S)-2-[(1R,2R)-1-methoxy-2-methyl-3-oxo-3-{[(1S)-2-phenyl-1-(1,3-thiazol-2-yl)ethyl]amino}propyl]pyrrolidin-1-yl}-2-oxoethyl)-5,5,10-trimethyl-3,6,9-trioxo-8-(propan-2-yl)-2,13-dioxa-4,7,10-triazatetradec-1-yl]phenyl}-N˜5˜-carbamoyl-L-ornithinamide] (Me2Gly-KV[Cit][PABC][Aib]V[Dil][Dolaproine]-Doe) the “DAR after plasma incubation” value was 0.07, the “Conjugate stability (%)” value was 4% and the DAR was 1.83.
With `CC[C@H](C)[C@@H]([C@@H](CC(=O)N1CCC[C@H]1[C@H](OC)[C@@H](C)C(=O)N[C@@H](Cc1ccccc1)c1nccs1)OC)N(C)C(=O)[C@@H](NC(=O)C(C)(C)NC(=O)OCc1ccc(NC(=O)[C@H](CCCNC(N)=O)NC(=O)[C@@H](NC(=O)[C@H](CCCCN)NC(=O)CN)C(C)C)cc1)C(C)C` [Example 29, glycyl-L-lysylvalyl-N-{4-[(8S,11S,12R)-11-[(2S)-butan-2-yl]-12-(2-{(2S)-2-[(1R,2R)-1-methoxy-2-methyl-3-oxo-3-{[(1S)-2-phenyl-1-(1,3-thiazol-2-yl)ethyl]amino}propyl]pyrrolidin-1-yl}-2-oxoethyl)-5,5,10-trimethyl-3,6,9-trioxo-8-(propan-2-yl)-2,13-dioxa-4,7,10-triazatetradec-1-yl]phenyl}-N˜5˜-carbamoyl-L-ornithinamide] (H-GKV[Cit][PABC][Aib]V[Dil][Dolaproine]-Doe) the “DAR after plasma incubation” value was 1.46, the “Conjugate stability (%)” value was 81% and the DAR was 1.80.
With `CC[C@H](C)[C@@H]([C@@H](CC(=O)N1CCC[C@H]1[C@H](OC)[C@@H](C)C(=O)N[C@@H](Cc1ccccc1)c1nccs1)OC)N(C)C(=O)[C@@H](NC(=O)C(C)(C)NC(=O)OCc1ccc(NC(=O)[C@H](CCCNC(N)=O)NC(=O)[C@@H](NC(=O)[C@H](CCCCN)NC(=O)C2(C)COC2)C(C)C)cc1)C(C)C` [Example 30, N˜2˜-[(3-methyloxetan-3-yl)carbonyl]-L-lysyl-L-valyl-N-{4-[(8S,11S,12R)-11-[(2S)-butan-2-yl]-12-(2-{(2S)-2-[(1R,2R)-1-methoxy-2-methyl-3-oxo-3-{[(1S)-2-phenyl-1-(1,3-thiazol-2-yl)ethyl]amino}propyl]pyrrolidin-1-yl}-2-oxoethyl)-5,5,10-trimethyl-3,6,9-trioxo-8-(propan-2-yl)-2,13-dioxa-4,7,10-triazatetradec-1-yl]phenyl}-N˜5˜-carbamoyl-L-ornithinamide] (X2-KV[Cit][PABC][Aib]V[Dil][Dolaproine]-Doe) the “DAR after plasma incubation” value was 0.06, the “Conjugate stability (%)” value was 5% and the DAR was 1.27.
With `CC[C@H](C)[C@@H]([C@@H](CC(=O)N1CCC[C@H]1[C@H](OC)[C@@H](C)C(=O)N[C@@H](Cc1ccccc1)c1nccs1)OC)N(C)C(=O)[C@@H](NC(=O)C(C)(C)NC(=O)OCc1ccc(NC(=O)[C@H](CCCNC(N)=O)NC(=O)[C@@H](NC(=O)[C@H](CCCCN)NC(=O)C(C)(C)N)C(C)C)cc1)C(C)C` [Example 31, 2-methylalanyl-L-lysylvalyl-N-{4-[(8S,11S,12R)-11-[(2S)-butan-2-yl]-12-(2-{(2S)-2-[(1R,2R)-1-methoxy-2-methyl-3-oxo-3-{[(1S)-2-phenyl-1-(1,3-thiazol-2-yl)ethyl]amino}propyl]pyrrolidin-1-yl}-2-oxoethyl)-5,5,10-trimethyl-3,6,9-trioxo-8-(propan-2-yl)-2,13-dioxa-4,7,10-triazatetradec-1-yl]phenyl}-N˜5˜-carbamoyl-L-ornithinamide] (H-[Aib]KV[Cit][PABC][Aib]V[Dil][Dolaproine]-Doe) the “DAR after plasma incubation” value was 0.03, the “Conjugate stability (%)” value was 2% and the DAR was 1.77.
With `CC[C@H](C)[C@@H]([C@@H](CC(=O)N1CCC[C@H]1[C@H](OC)[C@@H](C)C(=O)N[C@@H](Cc1ccccc1)c1nccs1)OC)N(C)C(=O)[C@@H](NC(=O)C(C)(C)NC(=O)OCc1ccc(NC(=O)[C@H](CCCNC(N)=O)NC(=O)[C@@H](NC(=O)[C@H](CCCCN)NC(=O)OC)C(C)C)cc1)C(C)C` [Example 32, N˜2˜-(methoxycarbonyl)-L-lysylvalyl-N-{4-[(8S,11S,12R)-11-[(2S)-butan-2-yl]-12-(2-{(2S)-2-[(1R,2R)-1-methoxy-2-methyl-3-oxo-3-{[(1S)-2-phenyl-1-(1,3-thiazol-2-yl)ethyl]amino}propyl]pyrrolidin-1-yl}-2-oxoethyl)-5,5,10-trimethyl-3,6,9-trioxo-8-(propan-2-yl)-2,13-dioxa-4,7,10-triazatetradec-1-yl]phenyl}-N˜5˜-carbamoyl-L-ornithinamide] (Moc-KV[Cit][PABC][Aib]V[Dil][Dolaproine]-Doe) the “DAR after plasma incubation” value was 0.08, the “Conjugate stability (%)” value was 5% and the DAR was 1.53.
For `CC[C@H](C)[C@@H]([C@@H](CC(=O)N1CCC[C@H]1[C@H](OC)[C@@H](C)C(=O)N[C@@H](Cc1ccccc1)c1nccs1)OC)N(C)C(=O)[C@@H](NC(=O)C(C)(C)NC(=O)OCc1ccc(NC(=O)[C@H](CCCNC(N)=O)NC(=O)[C@@H](NC(=O)[C@@H](N)CCCCN)C(C)C)cc1)C(C)C` [Example 33, L-lysylvalyl-N-{4-[(8S,11S,12R)-11-[(2S)-butan-2-yl]-12-(2-{(2S)-2-[(1R,2R)-1-methoxy-2-methyl-3-oxo-3-{[(1S)-2-phenyl-1-(1,3-thiazol-2-yl)ethyl]amino}propyl]pyrrolidin-1-yl}-2-oxoethyl)-5,5,10-trimethyl-3,6,9-trioxo-8-(propan-2-yl)-2,13-dioxa-4,7,10-triazatetradec-1-yl]phenyl}-N˜5˜-carbamoyl-L-ornithinamide] (H-KV[Cit][PABC][Aib]V[Dil][Dolaproine]-Doe), the “DAR after plasma incubation” value was 0.52, the “Conjugate stability (%)” value was 34% and the DAR was 1.53.
